For test [1], the target named is hCLEC12A-His fusion protein (human) (UniProt Q5QGZ9). In words: SPR (Biacore) 37 C. (In general: Surface plasmon resonance follows binding to a sensor surface in real time, without labels.)
Test [2] has the same target. Nature of the test: SPR (Biacore) 37 C, mean of 4.
The target is the same in test [3]. Nature of the test: SPR screening, semi-purified protein.
For test [4], the target named is human CLEC12A expressed on cells (human) (UniProt Q5QGZ9). Nature of the test: flow cytometry, hCLEC12A+Ba/F3 cells. On the technique in general: A flow cytometer gives signals particle by particle.
human CLEC12A expressed on cells (human), sequence (Q5QGZ9 whole entry): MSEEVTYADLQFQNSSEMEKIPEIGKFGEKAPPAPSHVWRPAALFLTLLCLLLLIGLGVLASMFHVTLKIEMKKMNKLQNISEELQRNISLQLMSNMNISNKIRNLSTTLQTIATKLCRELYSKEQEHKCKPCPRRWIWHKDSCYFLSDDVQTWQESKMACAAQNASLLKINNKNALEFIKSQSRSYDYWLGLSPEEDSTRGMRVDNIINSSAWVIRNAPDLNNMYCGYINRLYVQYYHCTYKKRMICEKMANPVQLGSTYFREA
Test [5] has the same target. Nature of the test: flow cytometry on RMA-hCLEC12A cells.
Test [6] has the same target. Nature of the test: flow cytometry, U937 cells.
For test [7], the target named is hCLEC12A-His fusion protein (human) (UniProt Q5QGZ9). Nature of the test: SPR 37 C, hybridoma supernatant.
For test [8], the target named is cynomolgus CLEC12A expressed on RMA cells (cynomolgus monkey). Nature of the test: flow cytometry, RMA-cCLEC12A cells.
cynomolgus CLEC12A expressed on RMA cells (cynomolgus monkey), sequence (chain, as listed by the source): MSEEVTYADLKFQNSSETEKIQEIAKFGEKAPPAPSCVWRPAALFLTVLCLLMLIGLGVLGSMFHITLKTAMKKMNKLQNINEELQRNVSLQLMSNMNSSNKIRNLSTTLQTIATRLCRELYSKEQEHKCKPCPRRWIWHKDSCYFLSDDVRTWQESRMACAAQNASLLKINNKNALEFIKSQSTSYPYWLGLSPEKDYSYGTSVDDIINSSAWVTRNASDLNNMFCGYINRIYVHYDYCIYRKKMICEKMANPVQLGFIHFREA
Test [9] has as its target human CLEC12A expressed on cells (human) (UniProt Q5QGZ9). Nature of the test: flow cytometry, RMA-hCLEC12A cells.

The values that follow come from US20230220084A1.

“And” between values parts separate entries of the source, which are not always exact repeats. Equal values may be shown once.

The term Kd denotes the constant that tells how readily two partners part at equilibrium. High values mean a looser complex, low ones a tighter complex. As usually defined, the koff is a measure of how fast the partners let go of each other. A word on the kon: it is the rate constant with which the complex forms. A word on the EC50: it is the midpoint of the concentration-response curve. A low value points to greater potency. For orientation: EC50 (read off the curve) means the midpoint of the concentration-response curve.

hCLEC12A-His fusion protein (human), sequence (Q5QGZ9 65-265 limits assumed): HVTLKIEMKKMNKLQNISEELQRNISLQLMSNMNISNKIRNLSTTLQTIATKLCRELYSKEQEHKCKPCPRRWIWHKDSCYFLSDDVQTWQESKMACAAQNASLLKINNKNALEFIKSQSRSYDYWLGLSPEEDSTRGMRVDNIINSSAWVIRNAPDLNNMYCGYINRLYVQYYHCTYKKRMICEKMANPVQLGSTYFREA

B1: F3′-1295 (bispecific antibody, part only; not given: Fc and unrelated binding arm, not shown: another chain or arm of the molecule; a dimerising Fc or GST)
scFv: QLQLQESGPGLVKPSETLSLTCTVSGFSLTNYGLHWIRQPPGKCLEWIGVIWSGGKTDYNPSLKSRVTISKDTSKNQFSLKLSSVQAADTAVYYCAKYDYDDSLDYWGQGTLVTVSSGGGGSGGGGSGGGGSGGGGSDIQMTQSPSSLSASVGDRVTITCHASQNINFWLSWYQQKPGKIPKLLIYEASNLHTGVPSRFSGSGSGTRFTLTISSLQPEDIATYYCQQSHSYPLTFGCGTKLEIK
As for B1, in test [1], the dissociation constant Kd is 1.43 nM and 1.42 nM and 1.44 nM. In [2], this molecule had a Kd of 1.43 nM, a koff of 0.000594 s⁻¹ and a kon of 415000 M⁻¹ s⁻¹. In test [3], this molecule gave a Kd of 2.94 nM, a koff of 0.00153 s⁻¹ and a kon of 520000 M⁻¹ s⁻¹. For the same molecule, in [4], the half-maximal effective concentration (EC50) was 26.1 nM and the Max MFI is 48000 MFI.

B2: F3′-1304 (bispecific antibody, part only; not given: Fc and unrelated binding arm, not shown: another chain or arm of the molecule; a dimerising Fc or GST; small tags and cut ends)
scFv: DIQMTQSPSSLSASVGDRVTITCHASQNINFWLSWYQQKPGKIPKLLIYEASNLHTGVPSRFSGSGSGTRFTLTISSLQPEDIATYYCQQSHSYPLTFGCGTKLEIKGGGGSGGGGSGGGGSGGGGSQLQLQESGPGLVKPSETLSLTCTVSGFSLTNYGLHWIRQPPGKCLEWIGVIWSGGKTDYNPSLKSRVTISKDTSKNQFSLKLSSVQAADTAVYYCAKYDYDDSLDYWGQGTLVTVSS
Regarding B2, in [3], the Kd turned out to be 2.7 nM, the koff amounted to 0.0013 s⁻¹ and the kon was 480000 M⁻¹ s⁻¹. In test [5], the half-maximal effective concentration (EC50 (read off the curve)) came to 10 nM.

B3: 15A10 hybridoma supernatant antibody (antibody, from a related filing, V domains shown)
VH: EVQLQESGAELVRSGASIKLSCAASAFNIKDYFIHWVRQRPDQGLEWIGWIDPENDDTEYAPKFQDKATMTADTSSNTAYLQLSSLTSADTAVYYCNALWSRGGYFDYWGQGTTLTVSS
VL: EVLLTQSPAIIAASPGEKVTITCSARSSVSYMSWYQQKPGSSPKIWIYGISKLASGVPARFSGSGSGTYFSFTINNLEAEDVATYYCQQRSYYPFTFGSGTKLEIK
For B3, the values for the Cell Binding MFI in test [6], in test [8] and in [9] were 83.8 MFI, 167 MFI and 372 MFI, respectively. Also, in test [7], the Kd was determined as 15.8 nM. The molecule further displayed an off-rate constant (koff) in [7] of 0.00223 s⁻¹.
